Measurements as given in patent publication US20210121406A1 (AstraZeneca / MedImmune, published 2021).

B1: cyno TSLP (ligand, cynomolgus (cyno))
chain: YDFTNCDFQKIEADYLRTISKDLITYMSGTKSTDFNNTVSCSNRPHCLTEIQSLTFNPTPRCASLAKEMFARKTKATLALWCPGYSETQINATQAMKKRRKRKVTTNKCLEQVSQLLGLWRRFIRTLLKKQ
notes: As used in solution in the KinExA assay; also called Cynomolgus TSLP
B2: Fab1 (Fab, V domains shown)
VH: QMQLVESGGGVVQPGRSLRLSCAASGFTFRTYGMHWVRQAPGKGLEWVAVIWYDGSNKHYADSVKGRFTITRDNSKNTLNLQMNSLRAEDTAVYYCARAPQWELVHEAFDIWGQGTMVTVSS
VL: SYVLTQPPSVSVAPGQTARITCGGNNLGSKSVHWYQQKPGQAPVLVVYDDSDRPSWIPERFSGSNSGNTATLTISRGEAGDEADYYCQVWDSSSDHVVFGGGTKLTVLG
notes: CDRs of anti-TSLP mAb A5 (WO 2009/035577) cloned into an IgG1 Fab scaffold; also called anti-TSLP Fab; MEDI8630

Experiments:
Fab1 [1] = target: B2; experiment: KinExA, cyno TSLP titrated into 40 pM fixed Fab1 (open squares); free Fab1 captured on hu TSLP-coated beads
Fab1 [2] = target: B2; experiment: KinExA, cyno TSLP titrated into 1000 pM fixed Fab1 (filled diamonds); free Fab1 captured on hu TSLP-coated beads
cyno TSLP = target: B1; experiment: KinExA, solution phase, global 1:1 fit
[3] = target: T1, N-terminally tagged biotinylated cyno TSLP (cynomolgus (cyno), UniProt A0A7N9CAT7 29-159, biotinylated (site not stated)); experiment: SPR (Biacore 8K), biotinylated TSLP on streptavidin, Fab1 in flow, 1:1 Langmuir model
T1 construct: Captured on streptavidin in the Biacore assay; also called Cynomolgus TSLP; recombinant mammalian cell-expressed cyno TSLP; not shown: N-terminal tag

[4] = target: T2, biotinylated His-Avi hu TSLP (human, UniProt Q969D9 29-159, biotinylated (site not stated)); experiment: HTRF competition; competitor DyLight-labelled tezepelumab
T2 construct: also called biotinylated TSLP; not shown: His-Avi tag

Row | IC50 [4] | Binder | further results
1 | – | B1 | IC50 (read off the curve) (Fab1 [1]): ~0.04 nM; IC50 (read off the curve) (Fab1 [2]): ~0.6 nM
2 | – | B2 | Kd (cyno TSLP): 0.0136 nM; Kd [3]: 0.0884 nM
3 | 0.29 nM | Fab2 (Fab, V domains shown) VH: QMQLVESGGGVVQPGRSLRLSCAASGFTFRTYGMHWVRQAPGKGLEWVAVIWYDGSNKHYADSVKGRFTITRDNSKNTLNLQMNSLRAEDTAVYYCARAPQWELVHEAFDIWGQGTMVTVSS VL: SYVLTQPPSVSVAPGQTARITCGGNNIGSKSVHWYQQKPGQAPVLVVYDDSDRPSWIPERFSGSNSGNTATLTISRGEAGDEADYYCQVWDSSSDHVVFGGGTKLTVL | –
4 | 0.42 nM | Fab5 (Fab, V domains shown, Only the changed VH is printed) VH: QMQLVESGGGVVQPGRSLRLSCAASGFTFRTYGMHWVRQAPGKGLEWVAVIWYDGSNKHYADSVKARFTITRDNSKNTLNLQMNSLRAEDTAVYYCARAPQWELVHEAFDIWGQGTMVTVSS VL: SYVLTQPPSVSVAPGQTARITCGGNNLGSKSVHWYQQKPGQAPVLVVYDDSDRPSWIPERFSGSNSGNTATLTISRGEAGDEADYYCQVWDSSSDHVVFGGGTKLTVL | –
5 | 0.24 nM | Fab7 (Fab, V domains shown, VL as labelled 'LIGHT CHAIN VL FAB7') VH: QMQLVESGGGVVQPGRSLRLSCAASGFTFRTYGMHWVRQAPGKGLEWVAVIWYDGSNKHYADSVKGRFTITRDNSKNTLNLQMNSLRAEDTAVYYCARAPQWELVHEAFDIWGQGTMVTVSS VL: SYVLTQPPSVSVAPGQTARITCGGNQLGSKSVHWYQQKPGQAPVLVVYDDSDRPSWIPERFSGSNSGNTATLTISRGEAGDEADYYCQVWDSSSDHVVFGGGTKLTVL | –
6 | 0.36 nM | Fab4 (Fab, V domains shown, Only the changed VH is printed) VH: QMQLVESGGGVVQPGRSLRLSCAASGFTFRTYGMHWVRQAPGKGLEWVAVIWYDGSNKHYAESVKGRFTITRDNSKNTLNLQMNSLRAEDTAVYYCARAPQWELVHEAFDIWGQGTMVTVSS VL: SYVLTQPPSVSVAPGQTARITCGGNNLGSKSVHWYQQKPGQAPVLVVYDDSDRPSWIPERFSGSNSGNTATLTISRGEAGDEADYYCQVWDSSSDHVVFGGGTKLTVL | –
7 | 0.29 nM | Fab8 (Fab, V domains shown, Only the changed VL is printed) VH: QMQLVESGGGVVQPGRSLRLSCAASGFTFRTYGMHWVRQAPGKGLEWVAVIWYDGSNKHYADSVKGRFTITRDNSKNTLNLQMNSLRAEDTAVYYCARAPQWELVHEAFDIWGQGTMVTVSS VL: SYVLTQPPSVSVAPGQTARITCGGNNLGSKSVHWYQQKPGQAPVLVVYDDSDRPSWIPERFSGSNSGNTATLTISRGEAGDEADYYCQVWDTSSDHVVFGGGTKLTVL | –
8 | 0.29 nM | Fab9 (Fab, V domains shown, Only the changed VL is printed) VH: QMQLVESGGGVVQPGRSLRLSCAASGFTFRTYGMHWVRQAPGKGLEWVAVIWYDGSNKHYADSVKGRFTITRDNSKNTLNLQMNSLRAEDTAVYYCARAPQWELVHEAFDIWGQGTMVTVSS VL: SYVLTQPPSVSVAPGQTARITCGGNNLGSKSVHWYQQKPGQAPVLVVYDDSDRPSWIPERFSGSNSGNTATLTISRGEAGDEADYYCQVWDSTSDHVVFGGGTKLTVL | –
9 | 0.32 nM | Fab6 (Fab, V domains shown, Only the changed VL is printed) VH: QMQLVESGGGVVQPGRSLRLSCAASGFTFRTYGMHWVRQAPGKGLEWVAVIWYDGSNKHYADSVKGRFTITRDNSKNTLNLQMNSLRAEDTAVYYCARAPQWELVHEAFDIWGQGTMVTVSS VL: SYVLTQPPSVSVAPGQTARITCGGQNLGSKSVHWYQQKPGQAPVLVVYDDSDRPSWIPERFSGSNSGNTATLTISRGEAGDEADYYCQVWDSSSDHVVFGGGTKLTVL | –
10 | 0.24 nM | Fab3 (Fab, V domains shown, Only the changed VL is printed) VH: QMQLVESGGGVVQPGRSLRLSCAASGFTFRTYGMHWVRQAPGKGLEWVAVIWYDGSNKHYADSVKGRFTITRDNSKNTLNLQMNSLRAEDTAVYYCARAPQWELVHEAFDIWGQGTMVTVSS VL: SYVLTQPPSVSVAPGQTARITCGGNNVGSKSVHWYQQKPGQAPVLVVYDDSDRPSWIPERFSGSNSGNTATLTISRGEAGDEADYYCQVWDSSSDHVVFGGGTKLTVL | –
